Experimental findings from US20240301086A1 (APTEVO RESEARCH AND DEVELOPMENT, published 2024) are described below.

Experiment [1] deals with T1, Human PSMA ECD-AFH (TSC033), recombinant dimeric PSMA ECD (human, UniProt Q04609 44-750).
T1 construct: SEC-purified dimer; also called HuPSMA-AFH; Avi-His-Human PSMA ECD
As to the kind of experiment: SPR (Biacore), recombinant dimeric PSMA ECD. Here is the method:
(§1) Mouse anti-human IgG (GE, BR-1008-39) at 25 μg/ml in 10 mM sodium acetate pH 5.0 was immobilized at a density of ˜2,000-4,000 response units (RU) onto each flow cell of a CM5 research-grade sensor chip (GE) by standard amine coupling chemistry. Each anti-PSMA protein at approximately 40 nM in dPBS with 0.2% BSA buffer was captured in a flow cell with the immobilized anti-human IgG at a flow rate of […] for up to 30 seconds, leaving one flow cell surface unmodified as the reference. Using a multi-cycle kinetics mode, a buffer blank and […] different concentrations of ECD ranging from 1 nM to 243 nM were sequentially injected through each flow cell at 30 μL/min with association times varying from 300-600 seconds and dissociation times varying from 600-1200 seconds. Regeneration was achieved by injection of 3 M MgCl₂ at a flow rate of 30 μL/min for up to 40 seconds followed by dPBS with 0.2% BSA buffer stabilization for 1 min.
(§2) The KD was determined for a set of PSMA×CD3 bispecific proteins binding to recombinant dimeric PSMA ECD using SPR. In comparison to the constructs analyzed in Table 3, which all had the anti-PSMA scFv in the VL-VH orientation, the constructs in Table 11 have sequences with the reverse the order of the variable domains. The constructs below utilize the PSMA01023 anti-PSMA sequence as a basis.
On the technique in general: In SPR one partner is held on a chip, and binding of the other changes the refractive index at the surface.

The target of experiment [2] is T2, recombinant human FcRn/b2M complex (human, UniProt P55899 24-297; P61769 21-119, limits assumed).
T2 construct: also called hFcRn/b2M; neonatal Fc receptor
T2 sequence (P55899 24-297 limits assumed, chain 1 of 2): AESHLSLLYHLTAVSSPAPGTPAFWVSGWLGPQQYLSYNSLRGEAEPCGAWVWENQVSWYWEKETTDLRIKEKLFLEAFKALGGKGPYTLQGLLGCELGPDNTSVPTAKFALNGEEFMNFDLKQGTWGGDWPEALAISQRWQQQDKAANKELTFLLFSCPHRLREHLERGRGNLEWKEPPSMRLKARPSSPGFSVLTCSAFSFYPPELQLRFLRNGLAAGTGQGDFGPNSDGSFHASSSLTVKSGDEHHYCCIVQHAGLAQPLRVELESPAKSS
T2 sequence (P61769 21-119 limits assumed, chain 2 of 2): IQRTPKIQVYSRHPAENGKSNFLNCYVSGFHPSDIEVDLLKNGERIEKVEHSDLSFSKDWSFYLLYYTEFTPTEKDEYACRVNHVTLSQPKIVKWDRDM
Put plainly: SPR at pH 6.0, hFcRn/b2M amine-coupled, construct 1-81 nM as analyte, steady-state affinity model. Here is the method:
(§3) Recombinant FcRn/b2M protein was generated via transient transfection of HEK-293 cells with a bi-cistronic vector containing the genes for both FcRn and […]. The complex was purified using IMAC chromatography and subsequently buffer exchanged into PBS buffer after verifying purity of the IMAC eluate by analytical SEC. Purified hFcRn/b2M at 5 μg/ml in 10 mM sodium acetate (pH 5.0) was immobilized on a CM5 chip by direct amine coupling chemistry to a level of ˜400 RU. A reference flow cell was left blank.
(§4) Different concentrations of the Fc variant protein (1-81 nM by 3-fold dilutions in HBS-EP+ with 0.2% BSA running buffer at pH 6.0) including running buffer as blank were injected in randomized order at 30 μL/min for 180 seconds followed by a 180 second dissociation period. Optimal regeneration was achieved by two injections of HBS-EP+ with 0.2% BSA at pH 7.5 at a flow rate of […] for 30 seconds followed by running buffer stabilization for 1 minute.
(§5) Sensorgrams obtained from kinetic SPR measurements were analyzed by the double subtraction method. […] Buffer reference was subtracted from analyte binding responses, and the final double-referenced data were analyzed with Biacore T200 Evaluation software (2.0, GE), globally fitting data to derive kinetic parameters. […]

The target in experiment [3] is T3, human Fcγ receptor IIB/C (human, UniProt P31994 46-217).
T3 sequence (looked up): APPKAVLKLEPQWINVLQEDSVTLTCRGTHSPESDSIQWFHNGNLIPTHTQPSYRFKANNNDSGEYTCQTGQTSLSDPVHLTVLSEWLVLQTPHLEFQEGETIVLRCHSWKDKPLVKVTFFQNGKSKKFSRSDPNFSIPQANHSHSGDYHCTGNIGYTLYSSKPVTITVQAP
Put plainly: SPR (Biacore T200), construct amine-coupled, Fcγ receptor titrated 375-6000 nM, 1:1 fit. Here is the method: (§6) The Fc region incorporated into anti-PSMA bispecific constructs contained mutations intended to reduce or abolish binding to common human and cynomolgus Fc gamma receptors. SPR experiments were conducted at 25° C. in HBS-EP+ with 0.2% BSA buffer on a Biacore T200 system to evaluate the impact of these mutations on binding. For these experiments, three flow cells of a CM5 sensor chip were immobilized with anti-PSMA bispecifics by standard amine coupling to a response level of ˜2000 RU. A blank immobilization was performed on flow cell #1 for purposes of background signal subtraction. Both human and cynomolgus monkey Fcγ receptors (purchased from R&D Systems) were diluted in HBS-EP+ with 0.2% BSA to 4-6 μM and then flowed as analytes at 30 μL/min for 120 seconds followed by a 240 second dissociation step. No regeneration step was required. Blank-subtracted sensorgrams were visually inspected for binding to each of the Fcγ receptor proteins. […] Attenuated binding to Fcγ receptors IIA (both polymorphic variants) and IIB/C was observed. PSMA01107 and PSMA01108 share the same Fc amino acid sequence and therefore equivalent Fcγ receptor binding behavior was expected.
(§7) TSC266 (PSMA×CD3 bispecific antibody) and another protein containing a wild-type IgG1 Fc sequence were also analyzed for comparison. Sensorgrams obtained from kinetic SPR measurements were analyzed by the double subtraction method in the Biacore T200 evaluation software. Kinetic parameters were derived from a one-to-one binding fit model and reported below in Table 8. Both TSC266 and PSMA01107 show reduced binding compared to a wild type IgG1 Fc.

Experiment [4] addresses T4, human Fcγ receptor IIA, H167 variant (human, UniProt P12318 36-218).
T4 sequence (looked up): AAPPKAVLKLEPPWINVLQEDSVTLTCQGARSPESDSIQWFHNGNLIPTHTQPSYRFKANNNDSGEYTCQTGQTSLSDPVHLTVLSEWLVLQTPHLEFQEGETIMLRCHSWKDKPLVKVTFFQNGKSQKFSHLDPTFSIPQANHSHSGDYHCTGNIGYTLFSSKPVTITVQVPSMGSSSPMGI
Described as above. Here is the method: as §6, §7

For experiment [5], the target named is T1, Human PSMA ECD-AFH (TSC033), …. As to the kind of experiment: SPR (Biacore), recombinant dimeric PSMA ECD. How it is done:
as §1, §2
The source holds these as a separate data set.

The target of experiment [6] is T2, recombinant human FcRn/b2M complex. As to the kind of experiment: SPR at pH 6.0, hFcRn/b2M amine-coupled, construct 1-81 nM as analyte, two-state reaction model fit. How it is done: as §3, §4, §5

Like-named read-outs stand apart in the source and are kept apart here. Some results are limits rather than exact numbers.

T1 sequence (Q04609 other isoform, or with tags, fused parts or gaps): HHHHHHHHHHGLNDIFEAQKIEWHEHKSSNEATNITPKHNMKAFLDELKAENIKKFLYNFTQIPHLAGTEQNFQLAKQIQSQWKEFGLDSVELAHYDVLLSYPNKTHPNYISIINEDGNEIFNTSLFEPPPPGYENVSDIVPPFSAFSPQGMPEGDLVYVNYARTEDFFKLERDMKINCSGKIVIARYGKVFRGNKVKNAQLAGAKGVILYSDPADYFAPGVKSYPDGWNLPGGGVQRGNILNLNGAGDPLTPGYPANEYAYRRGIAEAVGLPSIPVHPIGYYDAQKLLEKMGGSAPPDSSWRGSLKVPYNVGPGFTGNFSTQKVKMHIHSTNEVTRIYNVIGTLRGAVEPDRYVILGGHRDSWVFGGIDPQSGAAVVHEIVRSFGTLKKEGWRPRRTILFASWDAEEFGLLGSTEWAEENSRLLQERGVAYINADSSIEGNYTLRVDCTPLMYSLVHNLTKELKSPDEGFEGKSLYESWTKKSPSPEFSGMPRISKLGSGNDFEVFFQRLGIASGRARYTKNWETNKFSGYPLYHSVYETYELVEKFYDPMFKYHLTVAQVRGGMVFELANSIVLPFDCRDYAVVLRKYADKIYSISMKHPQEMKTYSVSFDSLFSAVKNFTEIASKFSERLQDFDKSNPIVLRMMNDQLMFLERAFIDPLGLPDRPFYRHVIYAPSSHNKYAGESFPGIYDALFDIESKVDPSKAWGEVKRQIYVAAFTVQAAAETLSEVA

B1: PSMA01107 Anti-PSMA scFv x Fc x linker x Anti CD3 scFv; Anti PSMA scFv x Fc (bispecific antibody)
chain 1: QVQLVQSGAEVKKPGASVKVSCKASGYTFTDYYMHWVRQAPGQGLEWMGYFNPYNDYTRYAQKFQGRVTMTRDTSTSTVYMELSSLRSEDTAVYYCARSDGYYDAMDYWGQGTTVTVSSGGGGSGGGGSGGGGSGGGGSDIQMTQSPSSLSASVGDRVTITCRASKSISKYLAWYQQKPGKAPKLLIHSGSSLESGVPSRFSGSGSGTEFTLTISSLQPDDFATYYCQQHIEYPWTFGQGTKVEIKEPKSSDKTHTCPPCPAPPAAAPSVFLFPPKPKDTLMISRTPEVTCVVVDVSHEDPEVKFNWYVDGVEVHNAKTKPREEQYNSTYRVVSVLTVLHQDWLNGKEYKCAVSNKALPAPIEKTISKAKGQPREPQVYTLPPSRDELTKNQVSLWCLVKGFYPSDIAVEWESNGQPENNYKTTPPVLDSDGSFFLYSKLTVDKSRWQQGNVFSCSVMHEALHNHYTQKSLSLSPGGGGSPSQVQLVQSGAEVKKPGASVKVSCKASGYTFTRSTMHWVRQAPGQGLEWIGYINPSSAYTNYAQKFQGRVTLTADKSTSTAYMELSSLRSEDTAVYYCASPQVHYDYNGFPYWGQGTLVTVSSGGGGSGGGGSGGGGSGGGGSDIQMTQSPSSLSASVGDRVTITCRASSSVSYMNWYQQKPGKAPKRWIYDSSKLASGVPSRFSGSGSGTDFTLTISSLQPEDFATYYCQQWSRNPPTFGQGTKVEIKRS
chain 2: QVQLVQSGAEVKKPGASVKVSCKASGYTFTDYYMHWVRQAPGQGLEWMGYFNPYNDYTRYAQKFQGRVTMTRDTSTSTVYMELSSLRSEDTAVYYCARSDGYYDAMDYWGQGTTVTVSSGGGGSGGGGSGGGGSGGGGSDIQMTQSPSSLSASVGDRVTITCRASKSISKYLAWYQQKPGKAPKLLIHSGSSLESGVPSRFSGSGSGTEFTLTISSLQPDDFATYYCQQHIEYPWTFGQGTKVEIKEPKSSDKTHTCPPCPAPPAAAPSVFLFPPKPKDTLMISRTPEVTCVVVDVSHEDPEVKFNWYVDGVEVHNAKTKPREEQYNSTYRVVSVLTVLHQDWLNGKEYKCAVSNKALPAPIEKTISKAKGQPREPQVYTLPPSRDELTKNQVSLSCAVKGFYPSDIAVEWESNGQPENNYKTTPPVLDSDGSFFLVSKLTVDKSRWQQGNVFSCSVMHEALHNHYTQKSLSLSPG
notes: Heterodimer, bivalent for PSMA and monovalent for CD3 (VH-VL scFv at the C-terminus); also called PSMA1107
For B1, the Kd in experiment [1] is < 10 nM; in experiment [2] it was 59 nM; in experiment [3], 6500 nM; in experiment [4] it was 19900 nM; in experiment [5], 3.4 nM; in experiment [6], 47 nM. For the same molecule, the off-rate (koff) in experiment [5] came to 8.5e-05 s⁻¹. In experiment [5], the kon was 29000 M⁻¹ s⁻¹.

B2: PSMA01108 Anti-PSMA scFv x Fc x linker x Anti CD3 scFv; Anti PSMA scFv x Fc (bispecific antibody)
chain 1: QVQLVQSGAEVKKPGASVKVSCKASGYTFTDYYMHWVRQAPGQGLEWMGYFNPYNDYTRYAQKFQGRVTMTRDTSTSTVYMELSSLRSEDTAVYYCARSDGYYDAMDYWGQGTTVTVSSGGGGSGGGGSGGGGSGGGGSDIQMTQSPSSLSASVGDRVTITCRASKSISKYLAWYQQKPGKAPKLLIHSGSSLESGVPSRFSGSGSGTEFTLTISSLQPDDFATYYCQQHIEYPWTFGQGTKVEIKEPKSSDKTHTCPPCPAPPAAAPSVFLFPPKPKDTLMISRTPEVTCVVVDVSHEDPEVKFNWYVDGVEVHNAKTKPREEQYNSTYRVVSVLTVLHQDWLNGKEYKCAVSNKALPAPIEKTISKAKGQPREPQVYTLPPSRDELTKNQVSLWCLVKGFYPSDIAVEWESNGQPENNYKTTPPVLDSDGSFFLYSKLTVDKSRWQQGNVFSCSVMHEALHNHYTQKSLSLSPGGGGSPSDIQMTQSPSSLSASVGDRVTITCRASSSVSYMNWYQQKPGKAPKRWIYDSSKLASGVPSRFSGSGSGTDFTLTISSLQPEDFATYYCQQWSRNPPTFGQGTKVEIKGGGGSGGGGSGGGGSGGGGSQVQLVQSGAEVKKPGASVKVSCKASGYTFTRSTMHWVRQAPGQGLEWIGYINPSSAYTNYAQKFQGRVTLTADKSTSTAYMELSSLRSEDTAVYYCASPQVHYDYNGFPYWGQGTLVTVSS
chain 2: QVQLVQSGAEVKKPGASVKVSCKASGYTFTDYYMHWVRQAPGQGLEWMGYFNPYNDYTRYAQKFQGRVTMTRDTSTSTVYMELSSLRSEDTAVYYCARSDGYYDAMDYWGQGTTVTVSSGGGGSGGGGSGGGGSGGGGSDIQMTQSPSSLSASVGDRVTITCRASKSISKYLAWYQQKPGKAPKLLIHSGSSLESGVPSRFSGSGSGTEFTLTISSLQPDDFATYYCQQHIEYPWTFGQGTKVEIKEPKSSDKTHTCPPCPAPPAAAPSVFLFPPKPKDTLMISRTPEVTCVVVDVSHEDPEVKFNWYVDGVEVHNAKTKPREEQYNSTYRVVSVLTVLHQDWLNGKEYKCAVSNKALPAPIEKTISKAKGQPREPQVYTLPPSRDELTKNQVSLSCAVKGFYPSDIAVEWESNGQPENNYKTTPPVLDSDGSFFLVSKLTVDKSRWQQGNVFSCSVMHEALHNHYTQKSLSLSPG
notes: also called PSMA1108; PSAM01108
Regarding B2, the equilibrium dissociation constant (Kd) is < 10 nM in experiment [1], 27 nM in experiment [2], 3.1 nM in experiment [5] and 19 nM in experiment [6]. In addition, the koff in experiment [5] was determined as 9e-05 s⁻¹. In experiment [5], the on-rate (kon) worked out at 29000 M⁻¹ s⁻¹.

B3: TSC266 Anti PSMA scFv x Anti CD3 scFv ADAPTIR (bispecific antibody)
chain: DIQMTQSPSAMSASVGDRVTITCRASKSISKYLAWFQQKPGKVPKLRIHSGSTLQSGVPSRFSGSGSGTEFTLTISSLQPEDFATYYCQQHIEYPWTFGQGTKVEIKRGGGGSGGGGSGGGGSQVQLVQSGAEVKKPGASVKVSCKASGYTFTDYYMHWVRQAPGQGLEWMGYFNPYNDYTRYAQKFQGRVTMTRDTSISTAYMELSSLRSDDTAVYYCARSDGYYDAMDYWGQGTTVTVSSSEPKSSDKTHTCPPCPAPEAAGAPSVFLFPPKPKDTLMISRTPEVTCVVVDVSHEDPEVKFNWYVDGVEVHNAKTKPREEQYNSTYRVVSVLTVLHQDWLNGKAYACAVSNKALPAPIEKTISKAKGQPREPQVYTLPPSRDELTKNQVSLTCLVKGFYPSDIAVEWESNGQPENNYKTTPPVLDSDGSFFLYSKLTVDKSRWQQGNVFSCSVMHEALHNHYTQKSLSLSPGQRHNNSSLNTGTQMAGHSPNSQVQLVESGGGVVQPGRSLRLSCKASGYTFTRSTMHWVRQAPGQGLEWIGYINPSSAYTNYNQKFKDRFTISADKSKSTAFLQMDSLRPEDTGVYFCARPQVHYDYNGFPYWGQGTPVTVSSGGGGSGGGGSGGGGSAQDIQMTQSPSSLSASVGDRVTMTCSASSSVSYMNWYQQKPGKAPKRWIYDSSKLASGVPARFSGSGSGTDYTLTISSLQPEDFATYYCQQWSRNPPTFGGGTKLQITSSS
notes: The anti-PSMA domain is that of PSMA01012 and the anti-CD3 domain is DRA222; also called unoptimized parent construct; TSC266 control (PSMA × CD3 bispecific protein)
As to B3, the dissociation constant (Kd) turned out to be 2700 nM in experiment [3] and 20000 nM in experiment [4].

Broadly, the Kd is the equilibrium constant for the complex coming apart. In general, koff refers to the rate constant with which the complex falls apart. Broadly, the kon is the second-order rate constant of association.
